The values that follow come from patent US11123408B2, “Compositions and methods for treating nonsteroidal anti-inflammatory drug (NSAID) associated coagulopathy, thrombocytopenia, glanzmann's thrombasthenia, and/or thrombosis” (YALE UNIVERSITY, priority 2011, dated 2021).

This data set in a line: Ap4A hydrolysis by NPP enzymes (linked malachite green assay, absorbance change at 259 nm, HPLC). Format: biochemical. The protocol: NPP4 nucleotide substrates were identified by directly detecting the free phosphate (Pi) product using malachite green (ADP substrate) or by a linked hydrolysis assay with alkaline phosphatase combined with malachite green (lipid substrates and nucleotide substrates without terminal P1) to measure released Pi. 50 μM substrate P1 equivalents (e.g. 25 μM ADP) were treated with 50 nM NPP4 for 1 hr 37 min (lipids) or 3 hr 15 min (all other substrates). For substrates without terminal phosphates, 10 units of calf intestinal alkaline phosphatase (M0290S, 10,000 units/mL, New England Biolabs, Ipswich, Mass.) was added for a final reaction volume of 50 μL. 100 μL of malachite green (BIOMOL GREEN™, Enzo Life Sciences, Plymouth Meeting, Pa.) was added to quench the reactions. The amount of phosphate released was measured by absorbance at 620 nm by a Biotek Synergy Mx plate reader (Winooski, Vt.) in 96-well plates (3679, Corning Inc., Corning, N.Y.) and compared against a phosphate standard curve.
The kinetics of the steady state Ap3A/Ap4A cleavage by NPP4 was measured from time courses of absorbance change at 259 nm using a UV spectrophotometer with a 0.1 cm optical path length cuvette or a stopped-flow device with a 0.2 cm optical path length cell. The enzymology reactions in 50 mM Tris pH 8.0, 140 mM NaCl, 5 mM KCl, 1 mM MgCl2 and 1 mM CaCl2 were started by addition of 1 μM NPP4 to varying concentrations of Ap3A/Ap4A (up to 800 μM) solution (UV spectrophotometer) or by rapid mixing of NPP4 and Ap3A/Ap4A (stopped-flow). The substrate concentrations higher than 800 μM have absorption too high to be measured by a UV spectrophotometer and stopped-flow, and were therefore measured by HPLC. […] Therefore, the rate of a product production or enzyme turnover measured by the absorption change assay can be calculated by the rate of absorption change
[formula] according to the following formula;
[formula] where Δl is optical path length. The following absorption coefficients were used: Ap3A: 25.75 mM^−1 cm^−1. Ap4A: 25.4 mM^−1 cm^−1. […]
The HPLC protocol used to measure Ap3A/Ap4A cleavage by NPP4 and for product identification is modified from that of Stocchi et al. (1985, Anal Biochem 146:118-24). The reactions containing varying concentrations of Ap3A/Ap4A in the same buffer as in the absorbance change assay were started by addition of 0.2-1 μM NPP4 and quenched at various time points by equal volume of 3 M formic acid, or 0.5 N KOH and re-acidified by glacial acetic acid to pH 6. The quenched reaction solution was diluted systematically and loaded a HPLC system (Waters, Milford Mass.) and substrates and products were monitored by UV absorbance at 254 or 259 nm. […] The products and substrate were quantified according to the integration of their correspondent peaks and the formula: […]

For orientation: Km means the concentration of substrate that gives half-maximal velocity.

B1: NPP4: soluble recombinant extracellular domain of human NPP4 (NCBI AAH18054.1, residues 1-407 of SEQ ID NO:1), expressed in insect cells (protein, listed as Homo sapiens)
chain: MKLLVILLFSGLITGFRSDSSSSLPPKLLLVSFDGFRADYLKNYEFPHLQNFIKEGVLVEHVKNVFITKTFPNHYSIVTGLYEESHGIVANSMYDAVTKKHFSDSNDKDPFWWNEAVPIWVTNQLQENRSSAAAMWPGTDVPIHDTISSYFMNYNSSVSFEERLNNITMWLNNSNPPVTFATLYWEEPDASGHKYGPEDKENMSRVLKKIDDLIGDLVQRLKMLGLWENLNVIITSDHGMTQCSQDRLINLDSCIDHSYYTLIDLSPVAAILPKINRTEVYNKLKNCSPHMNVYLKEDIPNRFYYQHNDRIQPIILVADEGWTIVLNESSQKLGDHGYDNSLPSMHPFLAAHGPAFHKGYKHSTINIVDIYPMMCHILGLKPHPNNGTFGHTKCLLVDQWCINLPEA
As for B1, under “linked alkaline phosphatase / malachite green assay”, the “Ap4A cleavage (qualitative)” value was “detected cleavage”. Also, the “maximum catalytic turnover rate (kcat) for Ap4A” value (substrate Ap4A) is approximately 1 s^−l. Moreover, the “kcat, Ap4A Hydrolysis by NPP4” value (substrate Ap4A, steady state) amounted to 0.78 s^−1NPP4^−1. Moreover, the Km (substrate Ap4A, steady state, read-out: KM, Ap4A Hydrolysis by NPP4) was 210 µM.
